From US12411143B2, “CD146 and uses thereof as a biomarker and as a therapeutic target in the diagnosis and treatment of fibrosis” (ASSISTANCE PUBLIQUE HÔPITAUX DE MARSEILLE, priority 2018, dated 2025)

Tests used:
[1] = system: chorio-allantoic membrane of the chick embryo; assay: Chorio-allantoic membrane assay; format: in vivo; conditions: 25 ng/ml or 50 ng/ml, 48 h
Protocol: D: Yolk sac membrane assays were performed in the presence of 25 ng/ml or 50 ng/ml I5-13-sCD146 and I10-sCD146 for 48 h and compared to control. Representative pictures of 4 different experiments are given.
The chorio-allantoic membrane of the chick embryo assay (CAM) was performed using a previously described protocol (Beckers et al., 1997).
The chorio-allantoic membrane of the chick embryo assay (CAM) was surgically removed and fixed in 10% buffered formaldehyde for 10 hours, dehydrated in graded alcohol, cleared in xylene and embedded in paraffin. 5 μm thick sections were cut in a plane parallel to the surface of the CAM and stained by hematoxylin-eosin which was observed under a light photomicroscope.

ECFC = assay: Endothelial cell tube formation in spheroids; format: cell-based, human; conditions: recombinant proteins 50 ng/ml
Protocol: E: Effect of recombinant proteins I10-sCD146, I5-13-sCD146 and shed sCD146 50 ng/ml on the number of sprouts, branched points and cumulative sprout length in spheroid experiments realized with ECFC. Results were compared to VEGF 20 ng/ml and complete EGM2-MV medium.
Formation of spheroid experiments was performed as previously described (Korff T. et al., 2001).

[2] = system: mouse ischemic hind limb model; assay: Mouse hind limb ischemia model; format: in vivo; conditions: for blood flow (laser-Doppler): 2 μg locally twice a week for 28 days; for blood flow (laser-Doppler) / vascularisation of muscle (isolectin B4 labelling): compared to PBS; for vascularisation of muscle (isolectin B4 labelling): 28 days after surgery; for number of vessels in the legs (angiography pictures) / vessel density in calf, thigh and whole leg (angiography quantification): D28, compared to PBS
Protocol: A: Ischemic mice were treated with PBS or 2 μg of rh-sCD146/rh-I10-sCD146/rh-I5-13-sCD146 or VEGF. Blood perfusion rate was monitored by laser-Doppler. Results are mean values of 6 different animals in each group and expressed as % of the control leg. *, **, ***: P<0.05, P<0.01, P<0.001, I10-sCD146 vs. PBS; $$, $$$: P<0.01, P<0.001, I5-13-sCD146 vs. PBS; ##, ###: P<0.01, P<0.001, shed sCD146 vs. PBS; £: P<0.05, VEGF vs. PBS.
B: Blood vessels examination in hind limb muscle sections from control (PBS) and shed rh-sCD146/rh-I10-sCD146/rh-I5-13-sCD146 treated animals 28 days after surgery. Vessels are labelled with isolectin B4.**, ***: P<0.01, P<0.001, experimental vs control. $: P<0.05, I10-sCD146 vs I5-13-sCD146.
C: Angiographic pictures of control (PBS) and shed sCD146/I10-sCD146/I5-13-sCD146 treated animals at D28. Pictures are representative of the 6 animals in each group. Average of the density of the vessels was expressed as right versus left leg in the different parts of the legs (calf, thigh) and in the whole leg. *, **: P<0.01, P<0.001 experimental vs PBS in calf; $: P<0.05, experimental vs PBS in thigh; #, ##: P<0.05, P<0.01, experimental vs PBS in whole leg.
In sections of muscles from ischemic mice, vascularisation was visualized with isolectin B4 (Lifetechnologies) ( 1/100). Tissue sections were examined by fluorescence microscopy (Leica sp5, Leica, Nanterre, France).
Female mice were subjected to unilateral hind limb ischemia by complete resection of the entire left femoral artery. After surgery, animals were split in four treatment groups: one control group injected in ischemic adductor muscles twice a week with PBS for 28 days; three experimental groups treated as the control groups with the three different recombinant human soluble CD146 (rh-sCD146, rh-I5-13-sCD146, rh-I10-sCD146) 2 μg.
The ratio of the ischemic versus normal hind limb blood flow was measured using a laser doppler blood flow analyzer. At different time points post-surgery (days 1, 3, 7, 14, 21 and 28), animals were subjected to 3 consecutive laser scannings over the regions of interest (leg and feet). Blood flow was expressed as the ischemic versus normal hind limb ratio.
The animals were deeply anesthetised with mix of Ketamine Xylasine (100 mg/kg and 10 mg/kg respectively) and perfused intracardially with 2 ml of lipiodole. CT 3D images were obtained with a microPET/microCT rodent model scanner (nanoPET/CTO, Mediso) with features below: 70 kVp energy, exposure time of 300 ms and 720 projections and were quantified.

[3] = system: b-catenin/TCF transcription activity; assay: b-catenin/TCF transcription assay (luciferase) in Mouse Embryonic Fibroblasts; format: cell-based; conditions: MEF from CD146 KO mice treated with bleomycin
Protocol: B: Activation of canonical Wnt signalling (b-catenin/TCF transcription activity; Luciferase assay) was estimated in Mouse Embryonic Fibroblasts (MEF) from CD146 KO and WT mice. MEF were treated or not with bleomycin in the presence or absence of shed sCD146, I5-13-sCD146 or I10-sCD146. Results are the mean values +/−SEM of 5 independent experiments.
HUVEC were obtained as previously described and were cultured in EGM2 medium (Kaspi et al., 2017). MEF (Mouse Embryonic Fibroblasts) were isolated from day 13. Embryos from CD146 KO or WT mice were isolated and cultured as previously described (Xu J., 2005).
Luciferase assay was performed as previously described (Kaspi et al., 2017).

[4] = system: CD146 KO mouse model of Systemic Sclerosis; assay: CD146 KO mouse model of Systemic Sclerosis induced by bleomycin; format: in vivo; conditions: bleomycin-treated animals, subcutaneous injection
Protocol: C: Dermal thickness was evaluated in a CD146 KO mouse model of Systemic Sclerosis induced by subcutaneous injection of bleomycin. The effect of shed sCD146, I5-13-sCD146 and I10-sCD146 was estimated and the average of 4-5 different animals was given. Representative pictures are also shown.
D: The aspect of the skin is shown in the different CD146 KO mice treated with bleomycin and injected or not with shed sCD146, I10-sCD146 and I5-13-sCD146.
E: Blood vessels examination in skin of animals treated or not with shed sCD146/I10-sCD146/I5-13-sCD146. Vessels are labelled with isolectin B4. Results are representative of 3 different experiments in the 4-5 animals.
Male CD146 KO mice (11-16 weeks) were treated with subcutaneous bleomycin and were compared with littermates WT mice as previously described (Kaspi et al., 2017).
Mice skin sections were fixed in 4% formalin and embedded into paraffin. Dermal thickness was quantified using a stereological method using a Merz grid as previously described (Kaspi et al., 2017).

Molecule	vascularisation in chorio-allantoic membrane assay [1]	pseudo-capillary generation (number of sprouts, cumulative sprout length) (ECFC)	blood flow (laser-Doppler) [2]	vascularisation of muscle (isolectin B4 labelling) [2]	number of vessels in the legs (angiography pictures) [2]	vessel density in calf, thigh and whole leg (angiography quantification) [2]	b-catenin/TCF transcription activity [3]	dermal thickness [4]	vascularisation of the skin at macroscopic level [4]	vessel density in skin (isolectin-b4 labelling) [4]	time after first injection at which a significant effect on blood flow was observed ([2]; 2 μg locally twice a week) [days]
sCD146: recombinant human soluble form of CD146 corresponding to the shed sCD146, obtained from Biocytex	increased vascularisation	increased the ability to generate pseudo-capillaries	able to increase blood flow	vascularisation was increased	increase in the number of vessels	significantly increased	decreased b-catenin/TCF transcription activity	reduced this dermal thickness to the value observed in control animals	increased vascularisation	significantly reversed	
rh-I10-sCD146: recombinant spliced variant of soluble CD146 containing intron 10, SEQ ID NO: 9 (protein, listed as Homo sapiens) MGLPRLVCAFLLAACCCCPRVAGVPGEAEQPAPELVEVEVGSTALLKCGLSQSQGNLSHVDWFSVHKEKRTLIFRVRQGQGQSEPGEYEQRLSLQDRGATLALTQVTPQDERIFLCQGKRPRSQEYRIQLRVYKAPEEPNIQVNPLGIPVNSKEPEEVATCVGRNGYPIPQVIWYKNGRPLKEEKNRVHIQSSQTVESSGLYTLQSILKAQLVKEDKDAQFYCELNYRLPSGNHMKESREVTVPVFYPTEKVWLEVEPVGMLKEGDRVEIRCLADGNPPPHFSISKQNPSTREAEEETTNDNGVLVLEPARKEHSGRYECQGLDLDTMISLLSEPQELLVNYVSDVRVSPAAPERQEGSSLTLTCEAESSQDLEFQWLREETGQVLERGPVLQLHDLKREAGGGYRCVASVPSIPGLNRTQLVNVAIFGEALPLGRDQVTPSGVVFKLFDKKPPAALGSSGAEGEAG	increased vascularisation	increased the ability to generate pseudo-capillaries	able to increase blood flow	vascularisation was increased	increase in the number of vessels	significantly increased	decreased b-catenin/TCF transcription activity	reduced this dermal thickness to the value observed in control animals	increased vascularisation	significantly reversed	3
rh-I5-13-sCD146: recombinant spliced variant of soluble CD146 containing introns 5 and 13, SEQ ID NO: 8 (protein, listed as Homo sapiens) MVYIVRQFLLYNVSGSVYLDQLIVLLTAKFSILRIAGSRVHHSPFSGHLDGCSFLSLQHSLHTSLDMSRHENVFLGLTLSSKSAGLKGFQLAFVPGLLQGTGGYLDGPLPTPVDNPRVGLEVGLRLSLPPLPPCPGVHIQSSQTVESSGLYTLQSILKAQLVKEDKDAQFYCELNYRLPSGNHMKESREVTVPVFYPTEKVWLEVEPVGMLKEGDRVEIRCLADGNPPPHFSISKQNPSTREAEEETTNDNGVLVLEPARKEHSGRYECQGLDLDTMISLLSEPQELLVNYVSDVRVSPAAPERQEGSSLTLTCEAESSQDLEFQWLREETGQVLERGPVLQLHDLKREAGGGYRCVASVPSIPGLNRTQLVNVAIFGPPWMAFKERKVWVKENMVLNLSCEASGHPRPTISWNVNGTASEQDQDPQRVLSTLNVLVTPELLETGVECTASNDLGKNTSILFLELVNLTTLTPDSNTTTGLSTSTASPHTRANSTSTGKPGLAREQGCARASFLPCPSPESPVQKGE	increased vascularisation	increased the ability to generate pseudo-capillaries	able to increase blood flow	vascularisation was increased	increase in the number of vessels	significantly increased	increased it	no significant effect	did not	no effect	
